B1: cobrotoxin (protein, UniProt P60770 22-83, looked up)
Cobrotoxin: LECHNQQSSQTPTTTGCSGGETNCYKKRWRDHRGYRTERGCGCPSVKNGIEINCCTTDRCNN
B2: Chain A, Cobrotoxin (protein, UniProt P60770 22-83, looked up)
Cobrotoxin: B1 Cobrotoxin

Experiments:
nAChR = molecular target: T1, nAChR (Rattus norvegicus, UniProt P09660+P25108+P25110); experiment: 125I labeled-αBtx-nAChR binding inhibition test (radio-immunoprecipitation); conditions: nAChR crude extract from rat skeletal muscle; approximate
T1 construct: nAChR crude extract from rat skeletal muscle; from tissue; host or cells: rat skeletal muscle (crude extract)
T1 sequence (P25108 21-457): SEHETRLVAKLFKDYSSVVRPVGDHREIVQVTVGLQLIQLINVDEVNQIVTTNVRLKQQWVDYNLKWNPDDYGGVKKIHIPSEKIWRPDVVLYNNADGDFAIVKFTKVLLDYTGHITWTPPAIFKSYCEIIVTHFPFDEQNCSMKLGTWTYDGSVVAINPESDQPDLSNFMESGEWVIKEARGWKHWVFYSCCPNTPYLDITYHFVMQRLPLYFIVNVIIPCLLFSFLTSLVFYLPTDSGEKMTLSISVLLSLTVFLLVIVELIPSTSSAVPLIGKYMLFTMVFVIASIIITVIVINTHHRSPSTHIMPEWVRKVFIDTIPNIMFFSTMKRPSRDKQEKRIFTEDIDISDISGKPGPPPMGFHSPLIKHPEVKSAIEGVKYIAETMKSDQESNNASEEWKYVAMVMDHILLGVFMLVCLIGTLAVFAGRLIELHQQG
T1 sequence (P25110 22-517): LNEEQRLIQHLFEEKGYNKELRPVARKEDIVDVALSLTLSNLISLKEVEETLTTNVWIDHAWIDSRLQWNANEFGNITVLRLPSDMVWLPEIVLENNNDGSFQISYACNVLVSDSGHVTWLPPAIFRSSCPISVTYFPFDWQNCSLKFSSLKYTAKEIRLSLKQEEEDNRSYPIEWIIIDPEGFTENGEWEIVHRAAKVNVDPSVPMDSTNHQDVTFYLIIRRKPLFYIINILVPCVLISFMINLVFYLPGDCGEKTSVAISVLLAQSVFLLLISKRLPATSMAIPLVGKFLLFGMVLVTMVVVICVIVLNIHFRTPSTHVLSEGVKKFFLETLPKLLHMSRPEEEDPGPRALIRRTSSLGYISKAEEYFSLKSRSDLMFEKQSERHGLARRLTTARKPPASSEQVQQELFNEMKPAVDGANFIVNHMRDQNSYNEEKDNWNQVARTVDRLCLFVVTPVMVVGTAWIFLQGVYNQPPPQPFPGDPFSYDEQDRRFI
T1 sequence (P09660 21-494): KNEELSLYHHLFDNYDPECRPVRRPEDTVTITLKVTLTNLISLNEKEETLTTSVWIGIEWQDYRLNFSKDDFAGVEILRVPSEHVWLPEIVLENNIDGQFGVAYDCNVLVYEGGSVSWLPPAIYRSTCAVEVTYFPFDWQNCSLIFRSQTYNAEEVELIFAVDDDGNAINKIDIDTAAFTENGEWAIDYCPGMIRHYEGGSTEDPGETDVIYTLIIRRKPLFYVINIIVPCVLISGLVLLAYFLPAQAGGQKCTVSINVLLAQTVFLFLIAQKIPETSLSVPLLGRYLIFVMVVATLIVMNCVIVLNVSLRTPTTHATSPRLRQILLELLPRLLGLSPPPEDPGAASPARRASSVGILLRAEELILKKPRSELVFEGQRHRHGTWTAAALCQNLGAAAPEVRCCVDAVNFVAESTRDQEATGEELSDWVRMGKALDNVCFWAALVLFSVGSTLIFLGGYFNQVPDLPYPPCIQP
T1 sequence (P25109 24-501 partner): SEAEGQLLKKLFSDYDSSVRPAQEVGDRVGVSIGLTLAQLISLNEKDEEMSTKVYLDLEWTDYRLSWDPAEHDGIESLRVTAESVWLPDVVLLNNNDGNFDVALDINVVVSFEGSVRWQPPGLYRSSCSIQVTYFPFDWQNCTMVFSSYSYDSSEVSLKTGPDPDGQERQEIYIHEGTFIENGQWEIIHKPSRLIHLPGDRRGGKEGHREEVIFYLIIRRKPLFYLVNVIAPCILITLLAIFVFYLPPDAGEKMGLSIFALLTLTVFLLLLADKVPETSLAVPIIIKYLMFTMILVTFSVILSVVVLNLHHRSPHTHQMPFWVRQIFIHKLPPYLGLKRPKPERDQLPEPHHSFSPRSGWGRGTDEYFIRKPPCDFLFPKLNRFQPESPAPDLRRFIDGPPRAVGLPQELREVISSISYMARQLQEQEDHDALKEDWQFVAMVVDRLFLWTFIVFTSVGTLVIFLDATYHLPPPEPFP
From the text: As shown in FIG.-2, a total of 12 fractions from the aforementioned ion-exchange chromatography were further desalted and purified by a reverse-phase HPLC (RP-HPLC) with Vydac RP-C18 (4.6×250 mm, 5.0 um). Fractions A and B were identified as high-affinity cobrotoxins with enhanced binding ability to nAChR in a later 125I labeled-αBtx-nAChR binding inhibition test. • 2) Screening and selection of single cobrotoxin molecule with high affinity binding to nAChR for better drug target engagement The 125I labeled-α-bungarotoxin(αBtx)-nAChR binding inhibition test was performed to evaluate the affinities of different cobrotoxins molecules. […] Higher the affinity of cobrotoxin with nAChR, greater the inhibitory rate toward α-bungarotoxin's binding to nAChR. In our radio-immunoprecipitation test, only nAChR bonded α-bungarotoxin will be precipitated with nicotinic acetylcholine antibody (mAb 35) and Rabbit Anti-Rat IgG, whilst unbounded α-bungarotoxin will be washed out. By testing the concentration of bonded α-bungarotoxin, we can determine the inhibitory rates of different cobrotoxins molecules isolated in step 1).
Calculation of “125I-αBtx-nAChR binding inhibitory rate (%)” […]
The 125I-αBtx-nAChR binding inhibition experiment process is performed and described in following sequence: • i. […] The (Bq) value per second was measured using the gamma radioimmunoassay counter.

Kunming mice [1] = experiment: Respiratory inhibition test; assay type: in vivo; conditions: effective dose of 60 μg/kg, 10 Kunming mice
From the text: 4) Respiratory inhibition test Chain A, Cobrotoxin and Chain A, Cobrotoxin B were separately administered to 10 Kunming mice of 20±2 g.

[2] = Quantitative microdialysis of unbound brain extracellular fluid (bECF) concentration after IV injection; assay type: in vivo, rat; conditions: rats, 125I-labeled, 120 μg, dialysate over 360 minutes, FIG. 4
From the text: The estimated molecular weights of Chain A, Cobrotoxin, Chain A, Cobrotoxin B are 6.9±0.6 KDa; the estimated molecular weights of a cobrotoxins complexes extracted from crude venom ranged from approximately 6.5 KDa to 15 KDa. Quantitative microdialysis (QMD) is used to determine the absolute unbound brain extracellular fluid (bECF) concentration of Chain A, Cobrotoxin, Chain A, Cobrotoxin B, and the cobrotoxins complexes. QMD is the only technique that enables sampling of bECF in conscious animals and provides direct evidence of exposure at extracellular target sites (Kielbasa and Stratford, Jr. 2015)
QMD consists of implanting a probe in rat (FIG.-3). The membrane of the probe will allow the exchange of perfusate with bECF, so the concentration of Chain A, Cobrotoxin, Chain A, Cobrotoxin B, and a cobrotoxins complexes in bECF could be measured through dialysate. […] In response, an in vivo recovery rate test of the probe (MD-2200) was performed on 125I-labeled Chain A, Cobrotoxin, Chain A, Cobrotoxin B, and a cobrotoxins complexes, each with three different concentrations of 5, 25, and 50 ng/ml as perfusate, with a flow rate of 2 μL/min was perfused through the probe. During microdialysis, the dialysate was collected every 10 minutes for an hour, then tested using SN629B-radioimmunoassay counter to calculate cpm. […] The recovery rate (by loss) % was calculated as: […]

Wistar rats = experiment: Tail flick test (thermal radiation), Periaqueductal Gray injection; assay type: in vivo; conditions: PAG injection; for latency induced by thermal radiation (tail flick): 1.5, 3.0 and 6.0 μg/kg; for time at which analgesic effect appeared / time at which analgesic effect peaked: after drug administration; for maximum increase of pain threshold: tail flick
Description: Most commonly, an intense light beam is focused on the animal's tail and a timer starts. When the animal flicks its tail, the timer stops and the recorded time (latency) is a measure of the pain threshold.
METHODS: Periaqueductal Gray (PAG) was injected with selected cobrotoxin molecule in rats, and the central analgesic effect was evaluated by the tail flick due to thermal radiation. 20 Wistar rats with a weight of 200±20 g were divided into 2 groups, 10 per group. […] The analgesic effect of Chain A, Cobrotoxin and Chain A, Cobrotoxin B appeared in 10˜15 minutes and peaked at 25˜30 minutes after drug administration. The maximum increase of pain threshold was over 200%.

Kunming mice [3] = experiment: Acetic acid writhing test, parenteral (iv) injection; assay type: in vivo; conditions: for inhibitory rate of mice writhing / time at which analgesic effect started: 60 μg/kg iv; for inhibitory rate of mice writhing: 90 minutes after administration; for time at which analgesic effect started / frequency of writhing induced by acetic acid / ED50 of the anti-nociceptive effect of acetic acid induced writhing: mice; for frequency of writhing induced by acetic acid: 30, 45 or 60 μg/kg iv; for ED50 of the anti-nociceptive effect of acetic acid induced writhing: iv
Description: Writhing test for the evaluation of analgesic effect by parenteral injection The writhing test is a chemical method used to induce pain of peripheral origin by injection of irritant principles like acetic acid in mice. Analgesic effect of the test compound is inferred from the decrease in the frequency of writhing.
METHOD: A total number of 60 Kunming mice were used, 10 per group, with a weight of 20±2 g. […] At dose of 60 μg/kg (iv), The analgesic effect started at 30 minutes, and could reach 60˜70% inhibitory rate of mice writhing at 90 minutes after administration. The ED50 of the anti-nociceptive effect of acetic acid induced writhing was 40˜50 μg/kg in the writhing test for Chain A, Cobrotoxin and Chain A, Cobrotoxin B.

Kunming mice [4] = experiment: Acetic acid writhing test, nasal administration; assay type: in vivo; conditions: for frequency of writhing induced by acetic acid: 30, 45 or 60 μg/kg nasal; for frequency of writhing induced by acetic acid / ED50 of the anti-nociceptive effect of acetic acid induced writhing / time at which analgesic effect started: mice; for duration of analgesic effect / ED50 of the anti-nociceptive effect of acetic acid induced writhing / time at which analgesic effect started: nasal administration; for duration of analgesic effect: after drug administration
Description: Writhing test for the evaluation of analgesic effect by nasal administration METHOD: A total number of 60 Kunming mice were used, 10 per group, with a weight of 20±2 g. […] The analgesic effect started at 30 minutes and lasted at least for 6 hours after drug administration.

Kunming mice [5] = experiment: Acetic acid writhing test, oral administration; assay type: in vivo; conditions: for frequency of writhing induced by acetic acid: 160, 320 or 480 μg/kg oral; for ED50 of the anti-nociceptive effect of acetic acid induced writhing: oral administration
From the text: Writhing test for the evaluation of analgesic effect by oral administration METHOD: A total number of 60 Kunming mice were used, 10 per group, with a weight of 20±2 g.

mice = conditions: i.c.v. injection, mice (Chen and Robinson, 1990); cited from earlier work

Molecule | 125I-αBtx-nAChR binding inhibitory rate (nAChR) | respiratory inhibition (Kunming mice [1]) | time course of reaching bECF brain concentration versus cobrotoxins complexes [2] | latency induced by thermal radiation (tail flick) (Wistar rats) | ED50 of the antinociceptive effect of thermal radiation-induced tail flick (Wistar rats) | time at which analgesic effect appeared (Wistar rats) | time at which analgesic effect peaked (Wistar rats) | maximum increase of pain threshold (Wistar rats) | inhibitory rate of mice writhing (Kunming mice [3]) | time at which analgesic effect started (Kunming mice [3]) [min] | frequency of writhing induced by acetic acid (Kunming mice [3]) | ED50 of the anti-nociceptive effect of acetic acid induced writhing (Kunming mice [3]) | frequency of writhing induced by acetic acid (Kunming mice [4]) | duration of analgesic effect (Kunming mice [4]) [h] | ED50 of the anti-nociceptive effect of acetic acid induced writhing (Kunming mice [4]) | time at which analgesic effect started (Kunming mice [4]) [min] | frequency of writhing induced by acetic acid (Kunming mice [5]) | ED50 of the anti-nociceptive effect of acetic acid induced writhing (Kunming mice [5]) | antinociceptive response in tail-flick test (mice)
Chain A, Cobrotoxin B | 40%-50% | No respiratory inhibition was observed | always ahead of the cobrotoxins complexes in reaching a specific concentration | dose-dependent increase | 3.3˜4.0 μg/kg | 10˜15 minutes | 25˜30 minutes | over 200% | 60˜70% | 30 | dose-dependent decrease | 40˜50 μg/kg | dose-dependent decrease | ≥ 6 | 38˜46 μg/kg | 30 | dose-dependent decrease | 300˜350 μg/kg | –
B1 | – | – | – | – | – | – | – | – | – | – | – | – | – | – | – | – | – | – | produced an antinociceptive response
B2 | 40%-50% | No respiratory inhibition was observed | always ahead of the cobrotoxins complexes in reaching a specific concentration | dose-dependent increase | 3.3˜4.0 μg/kg | 10˜15 minutes | 25˜30 minutes | over 200% | 60˜70% | 30 | dose-dependent decrease | 40˜50 μg/kg | dose-dependent decrease | ≥ 6 | 38˜46 μg/kg | 30 | dose-dependent decrease | 300˜350 μg/kg | –

From US20200093866A1, “Use of selected single cobrotoxin molecule as an analgesic” (priority 2018, published 2020)
